Test results: patent US20190175684A1
Blank lines part the entries; values can stand above or below the binder they belong to. Square brackets hold non-standard residues; d marks the D form. Ends that are not written are not given here.

Tests used:
[1] = molecular target: annexin A1; assay: QCM, peptide fixed on the sensor chip, Anxa1 injected at various doses
[2] = molecular target: annexin A1; assay: QCM (quartz crystal microbalance)

Kd [1]: 90.3 nM
B2: dSPT7 peptide (peptide)
peptide: [dS][dP][dT][dS][dL][dL][dF]

Kd [2]: 45.7 nM
B4: dTIT7 peptide (peptide)
peptide: [dT][dI][dT][dW][dP][dT][dM]

The remaining lines, values behind:

B1: dMPT7 peptide (peptide)
peptide: [dM][dP][dT][dL][dT][dF][dR]
Kd [1]: 298 nM

B3: dLLS7 peptide (peptide)
peptide: [dL][dL][dS][dW][dP][dS][dA]
Kd [1]: 54.2 nM

B5: dLRF7 peptide (peptide)
peptide: [dL][dR][dF][dP][dT][dV][dL]
Kd [1]: 31.2 nM
